Reference: publication PMC7010359, “High-resolution crystal structures of Escherichia coli FtsZ bound to GDP and GTP” (Acta Crystallographica. Section F, Structural Biology …, 2020)

Target: the molecule itself
Assay: crystal structure; hanging-drop vapor diffusion, 298 K, protein at 37 mg/ml with 1 mM GDP (1.35 Å) or 30 mg/ml with 1 mM GTP (1.40 Å); space group P2(1), one molecule in the asymmetric unit; filament generated by crystal packing

B1: E. coli FtsZ(L178E), truncated to the globular domain (residues 10-316) (domain or fragment, E. coli K-12, UniProt P0A9A6 10-316, looked up)
chain: DAVIKVIGVGGGGGNAVEHMVRERIEGVEFFAVNTDAQALRKTAVGQTIQIGSGITKGLGAGANPEVGRNAADEDRDALRAALEGADMVFIAAGMGGGTGTGAAPVVAEVAKDLGILTVAVVTKPFNFEGKKRMAFAEQGITELSKHVDSLITIPNDKLLKVLGRGISELDAFGAANDVLKGAVQGIAELITRPGLMNVDFADVRTVMSEMGYAMMGSGVASGEDRAEEAAEMAISSPLLEDIDLSGARGVLVNITAGFDLRLDEFETVGNTIRAFASDNATVVIGTSLDPDMNDELRVTVVATGIG
notes: FtsZ, E. coli K-12, globular domain, residues 10-316, with the mutation L178E; expressed from pET-11; Crystallized with 1 mM GDP (PDB 6umk) or 1 mM GTP (PDB 6unx); No tag is mentioned; One molecule in the asymmetric unit; the protofilament arises from crystal packing; also called EcFtsZ(L178E); source: E. coli BL21(DE3), purified (ammonium sulfate precipitation, Resource Q anion exchange)
B1: binds.
